# Target: the molecule itself
# Assay: cryo-EM structure
row,Protein,stoichiometry N
1,"wild-type (WT) human asparagine synthetase (ASNS) (enzyme, UniProt P08243 1-561, looked up) MCGIWALFGSDDCLSVQCLSAMKIAHRGPDAFRFENVNGYTNCCFGFHRLAVVDPLFGMQPIRVKKYPYLWLCYNGEIYNHKKMQQHFEFEYQTKVDGEIILHLYDKGGIEQTICMLDGVFAFVLLDTANKKVFLGRDTYGVRPLFKAMTEDGFLAVCSEAKGLVTLKHSATPFLKVEPFLPGHYEVLDLKPNGKVASVEMVKYHHCRDVPLHALYDNVEKLFPGFEIETVKNNLRILFNNAVKKRLMTDRRIGCLLSGGLDSSLVAATLLKQLKEAQVQYPLQTFAIGMEDSPDLLAARKVADHIGSEHYEVLFNSEEGIQALDEVIFSLETYDITTVRASVGMYLISKYIRKNTDSVVIFSGEGSDELTQGYIYFHKAPSPEKAEEESERLLRELYLFDVLRADRTTAAHGLELRVPFLDHRFSSYYLSLPPEMRIPKNGIEKHLLRETFEDSNLIPKEILWRPKEAFSDGITSVKNSWFKILQEYVEHQVDDAMMANAAQKFPFNTPKTKEGYYYRQVFERHYPGRADWLSHYWMPKWINATDPSARTLTHYKSAVKA",2
2,"R142I variant of human asparagine synthetase (ASNS) (enzyme, UniProt P08243 1-561, looked up) MCGIWALFGSDDCLSVQCLSAMKIAHRGPDAFRFENVNGYTNCCFGFHRLAVVDPLFGMQPIRVKKYPYLWLCYNGEIYNHKKMQQHFEFEYQTKVDGEIILHLYDKGGIEQTICMLDGVFAFVLLDTANKKVFLGRDTYGVIPLFKAMTEDGFLAVCSEAKGLVTLKHSATPFLKVEPFLPGHYEVLDLKPNGKVASVEMVKYHHCRDVPLHALYDNVEKLFPGFEIETVKNNLRILFNNAVKKRLMTDRRIGCLLSGGLDSSLVAATLLKQLKEAQVQYPLQTFAIGMEDSPDLLAARKVADHIGSEHYEVLFNSEEGIQALDEVIFSLETYDITTVRASVGMYLISKYIRKNTDSVVIFSGEGSDELTQGYIYFHKAPSPEKAEEESERLLRELYLFDVLRADRTTAAHGLELRVPFLDHRFSSYYLSLPPEMRIPKNGIEKHLLRETFEDSNLIPKEILWRPKEAFSDGITSVKNSWFKILQEYVEHQVDDAMMANAAQKFPFNTPKTKEGYYYRQVFERHYPGRADWLSHYWMPKWINATDPSARTLTHYKSAVKA",2

# From publication PMC10245805 (bioRxiv, 2024)
